Measured values: paper PMC12344693, “Human Milk Oligosaccharides Multivalently Presented on Defined Synthetic Neo-Glycoproteins Are Nanomolar Ligands of Tandem-Repeat Galectins” (Biomacromolecules, 2025)

Legend:
Asialofetuin = target: T1, Asialofetuin (UniProt P12763 19-359, asialo form (glycans without sialic acid), by its name only); experiment: ELISA; direct ELISA: ASF immobilised on microtiter plates, serial dilution of the galectin in EPBS (PBS with 2 mM EDTA, 50 µL/well); otherwise as the competitive ELISA (anti-His-tag-HRP detection); conditions: both partners purified
T1 construct: asialofetuin (desialylated fetuin); neither source nor species is stated; It is coated on the ELISA plate (0.1 µM in PBS); also called ASF
T1 sequence (looked up): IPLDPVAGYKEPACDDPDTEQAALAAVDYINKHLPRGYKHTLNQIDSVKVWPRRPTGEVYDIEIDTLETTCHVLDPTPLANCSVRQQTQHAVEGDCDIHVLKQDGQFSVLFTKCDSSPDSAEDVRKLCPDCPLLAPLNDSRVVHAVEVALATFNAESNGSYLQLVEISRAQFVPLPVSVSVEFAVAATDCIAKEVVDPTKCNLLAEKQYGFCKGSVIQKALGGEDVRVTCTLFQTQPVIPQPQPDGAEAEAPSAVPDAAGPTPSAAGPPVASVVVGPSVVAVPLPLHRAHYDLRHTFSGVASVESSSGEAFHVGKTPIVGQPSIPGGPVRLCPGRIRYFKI

[1] = target: T2, neo-glycoprotein NGP5 (LN2-Lac-HSA) (human, UniProt P02768 25-609, LN2-Lac (Galβ4GlcNAcβ3Galβ4Glc) on an ethylthioureidyl linker, coupled through squaric acid to lysine residues; approximately 5 to 9 glycans per HSA molecule (number in Table S7); positions not stated); experiment: BLI; biotinylated galectin constructs (2 μg/mL in PBS, 0.05% Tween-20) immobilised on streptavidin biosensors; neo-glycoproteins 1.56-100 nM in solution; 25 °C, 850 rpm; association 450 s, dissociation 600 s; Langmuir 1:1 kinetic model; conditions: both partners purified
T2 construct: human serum albumin (HSA), carrier protein of the neo-glycoprotein; source: washed with water by ultracentrifugation

B1: Gal-4-AVI-link (natural protein, human, UniProt P56470 1-323, looked up)
chain: MAYVPAPGYQPTYNPTLPYYQPIPGGLNVGMSVYIQGVASEHMKRFFVNFVVGQDPGSDVAFHFNPRFDGWDKVVFNTLQGGKWGSEERKRSMPFKKGAAFELVFIVLAEHYKVVVNGNPFYEYGHRLPLQMVTHLQVDGDLQLQSINFIGGQPLRPQGPPMMPPYPGPGHCHQQLNSLPTMEGPPTFNPPVPYFGRLQGGLTARRTIIIKGYVPPTGKSFAINFKVGSSGDIALHINPRMGNGTVVRNSLLNGSWGSEEKKITHNPFGPGQFFDLSIRCGLDRFKVYANGQHLFDFAHRLSAFQRVDTLEIQGDVTLSYVQI
modifications: biotin on the single lysine of the AVI-tag
notes: human galectin-4, full-length tandem-repeat galectin with the native full-length peptide linker of 28 aa (2979 Da); synthetic gene (Biocat) in pET-Duet1; also called Gal-4 (AVI-tag); source: E. coli BL21(λDE3) co-expressing biotin ligase BirA, purified (Ni-NTA); not shown: His6, N-terminal, kept
- Kd (Asialofetuin): 2300 ± 800 nM

B2: Gal-9-AVI-link (monobiotinylated full-length galectin-9) (natural protein, human, UniProt O00182 1-355, looked up)
chain: MAFSGSQAPYLSPAVPFSGTIQGGLQDGLQITVNGTVLSSSGTRFAVNFQTGFSGNDIAFHFNPRFEDGGYVVCNTRQNGSWGPEERKTHMPFQKGMPFDLCFLVQSSDFKVMVNGILFVQYFHRVPFHRVDTISVNGSVQLSYISFQNPRTVPVQPAFSTVPFSQPVCFPPRPRGRRQKPPGVWPANPAPITQTVIHTVQSAPGQMFSTPAIPPMMYPHPAYPMPFITTILGGLYPSKSILLSGTVLPSAQRFHINLCSGNHIAFHLNPRFDENAVVRNTQIDNSWGSEERSLPRKMPFVRGQSFSVWILCEAHCLKVAVDGQHLFEYYHRLRNLPTINRLEVGGDIQLTHVQT
modifications: biotin on the single lysine of the AVI-tag (…)
notes: human galectin-9 (Gal-9), both CRDs with the linker peptide; prepared as described previously; source: E. coli BL21(λDE3) cotransformed with the birA gene (biotin ligase), biotinylated in vivo; see Supporting Information, Section 6; not shown: (GGS)5 linker between AVI-tag and galectin, N-terminal, kept
- Kd [1]: 0.05 ± 0.01 nM
